# Assay results reported in article PMC6536502, “Structural insights into DNA recognition by AimR of the arbitrium communication system in the SPbeta phage” (Cell Discovery, 2019).
# T1: AimR T44D (Bacillus phage SPbeta, UniProt O64094 1-386, T44D)
# T1 sequence: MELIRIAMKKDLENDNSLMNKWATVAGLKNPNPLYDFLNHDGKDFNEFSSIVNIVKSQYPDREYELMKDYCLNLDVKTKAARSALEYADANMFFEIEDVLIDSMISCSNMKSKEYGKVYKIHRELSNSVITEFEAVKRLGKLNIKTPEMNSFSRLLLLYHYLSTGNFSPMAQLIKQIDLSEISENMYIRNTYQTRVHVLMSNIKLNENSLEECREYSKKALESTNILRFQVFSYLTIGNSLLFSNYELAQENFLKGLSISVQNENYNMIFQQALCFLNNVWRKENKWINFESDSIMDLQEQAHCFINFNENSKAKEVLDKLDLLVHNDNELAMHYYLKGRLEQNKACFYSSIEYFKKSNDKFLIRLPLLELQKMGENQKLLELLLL
# T2: AimR K77D (Bacillus phage SPbeta, UniProt O64094 1-386, K77D)
# T2 sequence: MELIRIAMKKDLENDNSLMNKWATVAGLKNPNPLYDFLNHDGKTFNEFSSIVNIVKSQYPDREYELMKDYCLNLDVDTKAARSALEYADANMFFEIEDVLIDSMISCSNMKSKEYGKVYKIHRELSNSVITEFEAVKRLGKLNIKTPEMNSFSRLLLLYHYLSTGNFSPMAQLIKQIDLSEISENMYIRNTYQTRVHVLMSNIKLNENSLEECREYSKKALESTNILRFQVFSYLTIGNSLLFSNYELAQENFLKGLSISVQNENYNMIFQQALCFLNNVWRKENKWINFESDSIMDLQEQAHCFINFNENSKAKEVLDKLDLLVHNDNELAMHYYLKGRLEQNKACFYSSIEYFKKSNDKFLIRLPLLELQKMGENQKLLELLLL
# T3: AimR N30A (Bacillus phage SPbeta, UniProt O64094 1-386, N30A)
# T3 sequence: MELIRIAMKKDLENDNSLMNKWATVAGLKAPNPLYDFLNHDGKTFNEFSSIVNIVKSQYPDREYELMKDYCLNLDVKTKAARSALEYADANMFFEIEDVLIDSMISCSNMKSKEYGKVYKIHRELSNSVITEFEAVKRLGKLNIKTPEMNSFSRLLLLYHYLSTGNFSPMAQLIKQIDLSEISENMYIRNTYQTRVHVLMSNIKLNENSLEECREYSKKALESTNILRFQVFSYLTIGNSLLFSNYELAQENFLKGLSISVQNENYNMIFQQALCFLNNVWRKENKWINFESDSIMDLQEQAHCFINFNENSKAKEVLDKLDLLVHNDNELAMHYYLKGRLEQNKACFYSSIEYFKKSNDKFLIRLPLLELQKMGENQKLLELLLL
# What was measured:
# Conditions in all cases: protein: recombinant; tags: 6xHis removed by drICE; chain copies: 2
# AimR T44D = molecular target: T1, AimR T44D; assay: EMSA; 5 mM Mg2+; EMSA: 25 mM Tris-HCl pH 8.0, 150 mM NaCl, 5 mM MgCl2, 5 mM DTT, 0.1 mg/ml BSA, 10% glycerol, 50 ug/ml salmon sperm DNA, 4 C, 15 min; smFRET: 20 mM phosphate pH
# AimR K77D = molecular target: T2, AimR K77D; assay: EMSA; EMSA: 25 mM Tris-HCl pH 8.0, 150 mM NaCl, 5 mM MgCl2, 5 mM DTT, 0.1 mg/ml BSA, 10% glycerol, 50 ug/ml salmon sperm DNA, 4 C, 15 min; smFRET: 20 mM phosphate pH
# AimR N30A = molecular target: T3, AimR N30A; assay: as above
binder,measurement,setting,value
31 bp aimX-upstream palindromic DNA (dsDNA) DNA 1: ACTTAAATATTAGGTTTTAATAACATCTAGT DNA 2: ACTAGATGTTATTAAAACCTAATATTTAAGT,binding signal,AimR T44D,11 fold lower affinity than WT AimR
same,binding result,AimR K77D,binds
same,binding result,AimR N30A,binds
